# In patent publication WO2018183494A1 (dated 2018):
# T1: CD19 (UniProt P15391 20-556, limits assumed)
# T1 sequence (looked up): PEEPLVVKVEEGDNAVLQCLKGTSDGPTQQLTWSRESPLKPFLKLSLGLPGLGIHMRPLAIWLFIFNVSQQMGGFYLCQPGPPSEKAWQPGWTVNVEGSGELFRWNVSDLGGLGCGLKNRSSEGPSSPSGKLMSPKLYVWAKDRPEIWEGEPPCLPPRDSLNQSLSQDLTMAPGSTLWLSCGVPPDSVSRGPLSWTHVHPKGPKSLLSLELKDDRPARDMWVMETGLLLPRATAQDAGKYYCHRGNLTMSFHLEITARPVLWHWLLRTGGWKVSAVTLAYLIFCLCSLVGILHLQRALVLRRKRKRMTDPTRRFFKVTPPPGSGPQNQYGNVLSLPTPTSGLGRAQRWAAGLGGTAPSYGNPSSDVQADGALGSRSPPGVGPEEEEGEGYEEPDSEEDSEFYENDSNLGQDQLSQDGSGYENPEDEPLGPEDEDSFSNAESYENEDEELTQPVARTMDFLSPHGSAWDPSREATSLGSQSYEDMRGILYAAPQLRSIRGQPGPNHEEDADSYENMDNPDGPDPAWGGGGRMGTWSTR
# Biological target: T1, CD19
# Assay: cell-based or functional assay
binder,measurement,value
"huB4-DGN462 (antibody, V domains shown) VH: QVQLVQPGAEVVKPGASVKLSCKTSGYTFTSNWMHWVKQAPGQGLEWIGEIDPSDSYTNYNQNFQGKAKLTVDKSTSTAYMEVSSLRSDDTAVYYCARGSNPYYYAMDYWGQGTSVTVSS VL: EIVLTQSPAIMSASPGERVTMTCSASSGVNYMHWYQQKPGTSPRRWIYDTSKLASGVPARFSGSGSGTDYSLTISSMEPEDAATYYCHQRGSYTFGGGTKLEIKR","median IC50 of cytotoxic activity (MTT assay, 72 h) in B cell lymphoma cell lines",0.1 nM
same,"median IC50 of cytotoxic activity (MTT assay, 72 h) in eight T cell-derived lymphomas with lower CD19 expression",1.75 nM
